Experiments:
[1] = system: HeLa Kyoto; experiment: solubility in G1/S (NP-40 vs SDS abundance) (log2 ratio); higher = more soluble; details: cell cycle stage: G1/S
[2] = system: HeLa Kyoto; experiment: melting temperature (median over replicates), in situ; higher = more thermally stable
[3] = system: HeLa Kyoto; experiment: solubility change mitosis vs G1/S (difference of NP-40 vs SDS log2 ratios) (log2 ratio difference); higher = more soluble in mitosis
[4] = system: HeLa Kyoto; experiment: thermal stability score vs G1/S (z-score of summed log2 fold changes over temperatures); higher = more thermally stable than in G1/S
[5] = cell cycle stage: early G1 (4.5 h after nocodazole release)
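Throughout, for melting temperature (median over replicates), in situ: HeLa Kyoto cells synchronized by double thymidine or nocodazole block, proteins quantified by TMT10plex mass spectrometry, three independent biological replicates.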
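Throughout, for solubility change mitosis vs G1/S (difference of NP-40 vs SDS log2 ratios): synchronized HeLa Kyoto cells (double thymidine block for G1/S, nocodazole release for mitosis), protein amounts in NP-40 versus SDS lysates quantified by mass spectrometry, three biological replicates.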
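Throughout, for solubility in G1/S (NP-40 vs SDS abundance): HeLa Kyoto cells arrested at G1/S by double thymidine block, proteins quantified by TMT10plex mass spectrometry in mild NP-40 versus SDS extracts, three biological replicates.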
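Throughout, for thermal stability score vs G1/S (z-score of summed log2 fold changes over temperatures): synchronized HeLa Kyoto cells, proteins quantified by TMT10plex mass spectrometry, three biological replicates, mitosis taken 0.5 h after nocodazole release, G1/S directly after double thymidine block.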

| Sequence | solubility in G1/S (log2) [1] | melting temperature ([2]; cell cycle stage: G1/S) | melting temperature ([2]; cell cycle stage: mitosis) | solubility change mitosis (log2) [3] | thermal stability score [4, 5] | thermal stability score ([4]; cell cycle stage: mitosis) |
| --- | --- | --- | --- | --- | --- | --- |
| MAAGGGGSCDPLAPAGVPCAFSPHSQAYFALASTDGHLRVWETANNRLHQEYVPSAHLSGTCTCLAWAPARLQAKESPQRKKRKSEAVGMSNQTDLLALGTAVGSILLYSTVKGELHSKLISGGHDNRVNCIQWHQDSGCLYSCSDDKHIVEWNVQTCKVKCKWKGDNSSVSSLCISPDGKMLLSAGRTIKLWVLETKEVYRHFTGHATPVSSLMFTTIRPPNESQPFDGITGLYFLSGAVHDRLLNVWQVRSENKEKSAVMSFTVTDEPVYIDLTLSENKEEPVKLAVVCRDGQVHLFEHILNGYCKKPLTSNCTIQIATPGKGKKSTPKPIPILAAGFCSDKMSLLLVYGSWFQPTIERVALNSREPHMCLVRDISNCWAPKVETAITKVRTPVMNSEAKVLVPGIPGHHAAIKPAPPQTEQVESKRKSGGNEVSIEERLGAMDIDTHKKGKEDLQTNSFPVLLTQGLESNDFEMLNKVLQTRNVNLIKKTVLRMPLHTIIPLLQELTKRLQGHPNSAVLMVQWLKCVLTVHASYLSTLPDLVPQLGTLYQLMESRVKTFQKLSHLHGKLILLITQVTASEKTKGATSPGQKAKLVYEEESSEEESDDEIADKDSEDNWDEDEEESESEKDEDVEEEDEDAEGKDEENGEDRDTASEKELNGDSDLDPENESEEE [WDR43] | -1.29 | 58.6 °C | 55.7 °C | 0.783 | -1.7 | -6.5 |
| MAAGIVASRRLRDLLTRRLTGSNYPGLSISLRLTGSSAQEEASGVALGEAPDHSYESLRVTSAQKHVLHVQLNRPNKRNAMNKVFWREMVECFNKISRDADCRAVVISGAGKMFTAGIDLMDMASDILQPKGDDVARISWYLRDIITRYQETFNVIERCPKPVIAAVHGGCIGGGVDLVTACDIRYCAQDAFFQVKEVDVGLAADVGTLQRLPKVIGNQSLVNELAFTARKMMADEALGSGLVSRVFPDKEVMLDAALALAAEISSKSPVAVQSTKVNLLYSRDHSVAESLNYVASWNMSMLQTQDLVKSVQATTENKELKTVTFSKL [ECH1] | 0.165 | 53.4 °C | 53.5 °C | -0.00393 | -1.52 | -2.22 |
| MAAGTSSYWEDLRKQARQLENELDLKLVSFSKLCTSYSHSSTRDGRRDRYSSDTTPLLNGSSQDRMFETMAIEIEQLLARLTGVNDKMAEYTNSAGVPSLNAALMHTLQRHRDILQDYTHEFHKTKANFMAIRERENLMGSVRKDIESYKSGSGVNNRRTELFLKEHDHLRNSDRLIEETISIAMATKENMTSQRGMLKSIHSKMNTLANRFPAVNSLIQRINLRKRRDSLILGGVIGICTILLLLYAFH [GOSR1] | 0.28 | 54.7 °C | 52 °C | 0.02 | -0.21 | -0.667 |
| MAAGVDCGDGVGARQHVFLVSEYLKDASKKMKNGLMFVKLVNPCSGEGAIYLFNMCLQQLFEVKVFKEKHHSWFINQSVQSGGLLHFATPVDPLFLLLHYLIKADKEGKFQPLDQVVVDNVFPNCILLLKLPGLEKLLHHVTEEKGNPEIDNKKYYKYSKEKTLKWLEKKVNQTVAALKTNNVNVSSRVQSTAFFSGDQASTDKEEDYIRYAHGLISDYIPKELSDDLSKYLKLPEPSASLPNPPSKKIKLSDEPVEAKEDYTKFNTKDLKTEKKNSKMTAAQKALAKVDKSGMKSIDTFFGVKNKKKIGKV [RNASEH2B] | 0.517 | 48.8 °C | 49.7 °C | -0.0965 | -0.0838 | 0.982 |
| MAAIPPDSWQPPNVYLETSMGIIVLELYWKHAPKTCKNFAELARRGYYNGTKFHRIIKDFMIQGGDPTGTGRGGASIYGKQFEDELHPDLKFTGAGILAMANAGPDTNGSQFFVTLAPTQWLDGKHTIFGRVCQGIGMVNRVGMVETNSQDRPVDDVKIIKAYPSG [PPIL1] | 0.351 | 49.1 °C | 50.1 °C | 0.414 | -0.554 | -0.941 |
| MAAIRMGKLTTMPAGLIYASVSVHAAKQEESKKQLVKPEQLPIYTAPPLQSKYVEEQPGHLQMGFASIRTATGCYIGWCKGVYVFVKNGIMDTVQFGKDAYVYLKNPPRDFLPKMGVITVSGLAGLVSARKGSKFKKITYPLGLATLGATVCYPVQSVIIAKVTAKKVYATSQQIFGAVKSLWTKSSKEESLPKPKEKTKLGSSSEIEVPAKTTHVLKHSVPLPTELSSEAKTKSESTSGATQFMPDPKLMDHGQSHPEDIDMYSTRS [APOOL] | 0.166 | 53.9 °C | 57.3 °C | -0.104 | -1.29 | -2.35 |
| MAAKSQPNIPKAKSLDGVTNDRTASQGQWGRAWEVDWFSLASVIFLLLFAPFIVYYFIMACDQYSCALTGPVVDIVTGHARLSDIWAKTPPITRKAAQLYTLWVTFQVLLYTSLPDFCHKFLPGYVGGIQEGAVTPAGVVNKYQINGLQAWLLTHLLWFANAHLLSWFSPTIIFDNWIPLLWCANILGYAVSTFAMVKGYFFPTSARDCKFTGNFFYNYMMGIEFNPRIGKWFDFKLFFNGRPGIVAWTLINLSFAAKQRELHSHVTNAMVLVNVLQAIYVIDFFWNETWYLKTIDICHDHFGWYLGWGDCVWLPYLYTLQGLYLVYHPVQLSTPHAVGVLLLGLVGYYIFRVANHQKDLFRRTDGRCLIWGRKPKVIECSYTSADGQRHHSKLLVSGFWGVARHFNYVGDLMGSLAYCLACGGGHLLPYFYIIYMAILLTHRCLRDEHRCASKYGRDWERYTAAVPYRLLPGIF [DHCR7] | -0.604 | 51 °C | 50.7 °C | -0.0769 | 0.148 | -0.18 |
| MAALGVAEAVAAPHPAEGAETAEAVELSRALSRLLPGLEADSKPGRRRALEALRRALEEPGPAADPTAFQGPWARLLLPRLLRCLSDPAEGCRALAVHLLDLGLRRAARPRDALPRLLPALAARLAGPVPARRPPEACEELRLALVQLLGLAVDLCGAALAPHLDDALRALRCSLLDPFAAVRRESCSCAAALAQATPDHFHMQSESLIGPLMQTISHQHWKVRVAAIEATGAVIHFGNGKSVDDVLSHFAQRLFDDVPQVRRAVASVVGGWLLCLRDRYSFFHKLIPLLLSSLNDEVPEVRQLAASLWEDVGLQWQKENEEDLKDKLDFAPPTPPHYPPHERRPVLGCRELVFRNLSKILPALCHDITDWVVGTRVKSAQLLPVLLLHAEDHATQHLEVVLRTLFQACTDEEAAVVQSCTRSAELVGTFVSPEVFLKLILSTLKKTPSASGLLVLASAMRGCPREALQPHLAAIATELAQAHICQASENDLYLERLLLCVQALVSVCHEDCGVASLQLLDVLLTIVALAGATGLRDKAQETMDSLAMVEGVSSCQDLYRKHIGPLLERVTASHLDWTAHSPELLQFSVIVAQSGPALGEALPHVVPTLRACLQPSQDPQMRLKLFSILSTVLLRATDTINSQGQFPSYLETVTKDILAPNLQWHAGRTAAAIRTAAVSCLWALTSSEVLSAEQIRDVQETLMPQVLTTLEEDSKMTRLISCRIINTFLKTSGGMTDPEKLIRIYPELLKRLDDVSNDVRMAAASTLVTWLQCVKGANAKSYYQSSVQYLYRELLVHLDDPERAIQDAILEVLKEGSGLFPDLLVRETEAVIHKHRSATYCEQLLQHVQAVPATQ [DNAAF5] | 0.0447 | 48.1 °C | 48 °C | -0.172 | 0.695 | 2.82 |
| MAALMTPGTGAPPAPGDFSGEGSQGLPDPSPEPKQLPELIRMKRDGGRLSEADIRGFVAAVVNGSAQGAQIGAMLMAIRLRGMDLEETSVLTQALAQSGQQLEWPEAWRQQLVDKHSTGGVGDKVSLVLAPALAACGCKVPMISGRGLGHTGGTLDKLESIPGFNVIQSPEQMQVLLDQAGCCIVGQSEQLVPADGILYAARDVTATVDSLPLITASILSKKLVEGLSALVVDVKFGGAAVFPNQEQARELAKTLVGVGASLGLRVAAALTAMDKPLGRCVGHALEVEEALLCMDGAGPPDLRDLVTTLGGALLWLSGHAGTQAQGAARVAAALDDGSALGRFERMLAAQGVDPGLARALCSGSPAERRQLLPRAREQEELLAPADGTVELVRALPLALVLHELGAGRSRAGEPLRLGVGAELLVDVGQRLRRGTPWLRVHRDGPALSGPQSRALQEALVLSDRAPFAAPSPFAELVLPPQQ [TYMP] | 0.479 | 55.7 °C | 57.5 °C | -0.0175 | -1.38 | -0.967 |
| MAALTTLFKYIDENQDRYIKKLAKWVAIQSVSAWPEKRGEIRRMMEVAAADVKQLGGSVELVDIGKQKLPDGSEIPLPPILLGRLGSDPQKKTVCIYGHLDVQPAALEDGWDSEPFTLVERDGKLYGRGSTDDKGPVAGWINALEAYQKTGQEIPVNVRFCLEGMEESGSEGLDELIFARKDTFFKDVDYVCISDNYWLGKKKPCITYGLRGICYFFIEVECSNKDLHSGVYGGSVHEAMTDLILLMGSLVDKRGNILIPGINEAVAAVTEEEHKLYDDIDFDIEEFAKDVGAQILLHSHKKDILMHRWRYPSLSLHGIEGAFSGSGAKTVIPRKVVGKFSIRLVPNMTPEVVGEQVTSYLTKKFAELRSPNEFKVYMGHGGKPWVSDFSHPHYLAGRRAMKTVFGVEPDLTREGGSIPVTLTFQEATGKNVMLLPVGSADDGAHSQNEKLNRYNYIEGTKMLAAYLYEVSQLKD [CNDP2] | 0.253 | 54.4 °C | 53.4 °C | -0.148 | -6.23 | -11.6 |
| MAALYRPGLRLNWHGLSPLGWPSCRSIQTLRVLSGDLGQLPTGIRDFVEHSARLCQPEGIHICDGTEAENTATLTLLEQQGLIRKLPKYNNCWLARTDPKDVARVESKTVIVTPSQRDTVPLPPGGARGQLGNWMSPADFQRAVDERFPGCMQGRTMYVLPFSMGPVGSPLSRIGVQLTDSAYVVASMRIMTRLGTPVLQALGDGDFVKCLHSVGQPLTGQGEPVSQWPCNPEKTLIGHVPDQREIISFGSGYGGNSLLGKKCFALRIASRLARDEGWLAEHMLILGITSPAGKKRYVAAAFPSACGKTNLAMMRPALPGWKVECVGDDIAWMRFDSEGRLRAINPENGFFGVAPGTSATTNPNAMATIQSNTIFTNVAETSDGGVYWEGIDQPLPPGVTVTSWLGKPWKPGDKEPCAHPNSRFCAPARQCPIMDPAWEAPEGVPIDAIIFGGRRPKGVPLVYEAFNWRHGVFVGSAMRSESTAAAEHKGKIIMHDPFAMRPFFGYNFGHYLEHWLSMEGRKGAQLPRIFHVNWFRRDEAGHFLWPGFGENARVLDWICRRLEGEDSARETPIGLVPKEGALDLSGLRAIDTTQLFSLPKDFWEQEVRDIRSYLTEQVNQDLPKEVLAELEALERRVHKM [PCK2] | 0.00231 | 52.8 °C | 52.1 °C | -0.0852 | -2.32 | -1.91 |
| MAAMETETAPLTLESLPTDPLLLILSFLDYRDLINCCYVSRRLSQLSSHDPLWRRHCKKYWLISEEEKTQKNQCWKSLFIDTYSDVGRYIDHYAAIKKAWDDLKKYLEPRCPRMVLSLKEGAREEDLDAVEAQIGCKLPDDYRCSYRIHNGQKLVVPGLLGSMALSNHYRSEDLLDVDTAAGGFQQRQGLKYCLPLTFCIHTGLSQYIAVEAAEGRNKNEVFYQCPDQMARNPAAIDMFIIGATFTDWFTSYVKNVVSGGFPIIRDQIFRYVHDPECVATTGDITVSVSTSFLPELSSVHPPHYFFTYRIRIEMSKDALPEKACQLDSRYWRITNAKGDVEEVQGPGVVGEFPIISPGRVYEYTSCTTFSTTSGYMEGYYTFHFLYFKDKIFNVAIPRFHMACPTFRVSIARLEMGPDEYEEMEEEEEEEEEEDEDDDSADMDESDEDDEEERRRRVFDVPIRRRRCSRLF [FBXO3] | -0.00208 | 53.9 °C | 53.3 °C | -0.0407 | 0.236 | 0.497 |
| MAAPALGLVCGRCPELGLVLLLLLLSLLCGAAGSQEAGTGAGAGSLAGSCGCGTPQRPGAHGSSAAAHRYSREANAPGPVPGERQLAHSKMVPIPAGVFTMGTDDPQIKQDGEAPARRVTIDAFYMDAYEVSNTEFEKFVNSTGYLTEAEKFGDSFVFEGMLSEQVKTNIQQAVAAAPWWLPVKGANWRHPEGPDSTILHRPDHPVLHVSWNDAVAYCTWAGKRLPTEAEWEYSCRGGLHNRLFPWGNKLQPKGQHYANIWQGEFPVTNTGEDGFQGTAPVDAFPPNGYGLYNIVGNAWEWTSDWWTVHHSVEETLNPKGPPSGKDRVKKGGSYMCHRSYCYRYRCAARSQNTPDSSASNLGFRCAADRLPTMD [SUMF1] | 0.277 | 53.7 °C | 55.1 °C | 0.0674 | -1.37 | 2.23 |
